The subject of data set [1] is Six1 + Eya2 Eya domain (ED) complex. Description: FP. Particulars: DMSO no effect.
Data set [2] concerns Six1, near full-length (natural degradation product ending at residue 259). Description: FP. Particulars: 28 kD Six1 with 10 kD fluorescein DNA, single cuvette.
Data set [3] has the same test system. The data set is described as follows: EMSA. Particulars: preliminary estimate.
Data set [4] relates to Six1 + Eya2 Eya domain (ED) complex. The data set is described as follows: EMSA. Conditions: addition of Eya ED increases affinity. In general terms: A gel shift assay detects complexes by their altered migration in electrophoresis.
The target of data set [5] is T1, Six1, full-length (UniProt Q15475).
T1 sequence: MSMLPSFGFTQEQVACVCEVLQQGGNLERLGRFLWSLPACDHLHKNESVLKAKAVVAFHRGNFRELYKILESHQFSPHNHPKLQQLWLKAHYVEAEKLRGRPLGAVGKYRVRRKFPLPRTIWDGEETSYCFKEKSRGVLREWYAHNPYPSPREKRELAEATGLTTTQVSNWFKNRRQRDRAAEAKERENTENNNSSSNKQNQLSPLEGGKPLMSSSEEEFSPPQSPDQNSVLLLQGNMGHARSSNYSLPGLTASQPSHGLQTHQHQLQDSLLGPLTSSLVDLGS
The data set is described as follows: EMSA. Conditions: Six1 alone.

Some results are limits rather than exact numbers.

This passage reports binding (fold increase in anisotropy), binding (fold increase in polarization) and Kd results from patent US20110038791.

In the case of 5'-fluorescein 16 nt MEF3 dsDNA, the binding (fold increase in anisotropy) in data set [1] worked out at 3. The substance also displayed a binding (fold increase in polarization) in data set [2] above 4.
For the substance 16 nt DNA containing MEF3 motif, the Kd in data set [3] was 1000 nM.
For 18 nt dsDNA containing MEF3 site, the dissociation constant (Kd) in data set [4] came out at 300 nM; in data set [5] it was 1000 nM.

The Kd is the free concentration of one partner at which half of the binding sites on the other are occupied at equilibrium, for simple one-to-one binding.
